Six sequences from the DeepSol protein solubility set can be followed below.

A short description of this data set: soluble on expression in E. coli; label from the status in PepcDB or PDB records.
As to “MGSDKIHHHHHHMITVNDLSVQFGKRILFQDVNLTFTPGNCYGIIGANGAGKSTMLRVISKQLDPTRGTVTLGPGERLSVLSQDHFAFDENTVMDTVLMGHSVLWAIMEEKNALYAKPDFSDEDGTRVAELEDKFAEMEGWNAESDAAMLLSGLGIKEDLHYMLMKDLSGKQKVRVLLARALYGKPDNLLLDEPTNDLDLETVSWLENYLSNFENTVLVVSHDRHFLDSVCTHTVDIDFGKVQQFSGNYSFWYESSQLALRQQQQQNKKAEEKRKELEEFIRRFSANVAKSKQTTSRKKMLEKLNIEEITPSSRRYPGILFTPGREPGNKILEVKGLTKSIEGQLLFRDLNFNVEKDDKIVFISRDPRAMTALFSIINGEMTPDEGTYEWGQTITTAYLPLDNSGYFNTDLNLVEWLSQFAKDTNEVFLKGFLGRMLFSGEEILKKASVLSGGEKMRCMISKMMMLDANTLVLDTPTNHLDLESIQAFNNTLKTYRGNVLFASHDHEFIQTVANRIIELTPNGIIDKIMDYDDYITDPIVAEMRQKLYGQ”, the “soluble on expression in E. coli” value is “not soluble”.
Turning to “MLGLLRRLFDNNEREIARYYKQVVEPVNRLEAEVEKLPDLAAAYRELKEKHEKGASLDELLPMAFALTRESAKRYLGMRHFDVQLIGGAVLHEGKIAEMKTGEGKTLVATLAVALNALTGKGVHVVTVNDYLARRDAEWMGPVYRGLGLSVGVIQHASTPAERRKAYLADVTYVTNSELGFDYLRDNMAISPDQLVLRHDHPLHYAIIDEVDSILIDEARTPLIISGPAEKATDLYYKMAEIAKKLERGLPAEPGVRKEPTGDYTVEEKNRSVHLTLQGIAKAEKLLGIEGLFSPENMELAHMLIQAIRAKELYHRDRDYIVQDGQVIIVDEFTGRLMPGRRYGEGLHQAIEAKEGVRIERENQTLATITYQNFFRLYEKRAGMTGTAKTEEKEFQEIYGMDVVVVPTNRPVIRKDFPDVVYRTEKGKFYAVVEEIAEKYERGQPVLVGTISIEKSERLSQMLKEPRLYLPRLEMRLELFKKASQKQQGPEWERLRKLLERPAQLKDEDLAPFEGLIPPKGNLRTAWEGLKRAVHTLAVLRQGIPHQVLNAKHHAREAEIVAQAGRSKTVTIATNMAGRGTDIKLGGNPEYLAAALLEKEGFDRYEWKVELFIKKMVAGKEEEARALAQELGIREELLERIREIREECKQDEERVRALGGLFIIGTERHESRRIDNQLRGRAGRQGDPGGSRFYVSFDDDLMRLFASDRVIAMLDRMGFDDSEPIEHPMVTRSIERAQKRVEDRNFAIRKQLLQFDDVLSRQREVIYAQRRLILLGKDEEVKEAAIGMVEETVASLAENFLNPEVHPEDWDLEGLKATLLDTAPQLQDFPFAELRALKAEEAVERLVEAALKAYEAREAELSPPLMRAVERFVILNVVDNAWKEHLHNLDVLRQGIFLRGYGQKDPFQEYKIEATRLFNEMVAFIKSEVAKFLFRLKVEAEPVRPVREAPYVPVPEAKPEPSEVFGVERKRATPPPQPGLSRAERRRLMRQEKKRKK”, the “soluble on expression in E. coli” value is on record as “soluble”.
For the sequence “MGSDKIHHHHHHMTRQCHPLATVVDACAPLRFAPLPDLRLRSFTRSGDQGDAGQWCRADLLAAKNAFAPVYDGFVAATRPGHRLPAATHFLRAVFREPIFLVAAGLYLTGRAPLLDASHLWFPVRADRTLGTPMLTELKVAVTADDRFAGHPETVTFPGSDDVVRAAAHAMVAAFTPVIDALSAHTRVGKRTLWGWVLDTAHFYMLNPARFLGRDAQAAWALANRLADALLEAGAVTRARPRLFPFCDNHPRGTWAVRGTCCFDYKGDPEHGYCTTCPHKCDNERRNELQEWLRNPALAP”, the “soluble on expression in E. coli” value is on record as “not soluble”.
For “NFMLTQPHSVSESPGKTVTISCTRSSGSIASYYVQWYQQRPGSSPTTVIYEDSQRPSGVPDRFSGSIDSSSNSASLTISGLKTEDEADYYCQSYDSSNVVFGGGTKLTVLGQPKAAPSVTLFPPSSEELQANKATLVCLISDFYPGAVTVAWKADSSPVKAGVETTTPSKQSNNKYAASSYLSLTPEQWKSHRSYSCQVTHEGSTVEKTVAPTECS” the value was “soluble”; for “GPGSMPRYYTPHEVRAHCFEDDAYVSINGKVLDITPLIQMYQGTRYASLLQPLILAAGTDMTHLLDKKTMDFKTCIDPETGFRTYAQPFGRFAHTPTVLPDSSIDLSYEVPWWQDERYVIGQLTRKTRKIRIVNTLNGHEHTLEVCSEETLREIVMTRYLSHNAHALSYTWRRLDSEPRDLDMDKTLDENGVLDESEEFESLGLNADYYIPALHLYYDDDLTEA”, “soluble”.
With “ILYLHGGYNTLQPSPFHWRLLDKLTLNTLHEVVLPIYPKSPDYHYLETFKAIRDVYNQLVEEVGANNIVMMGDGSGGGLALSFVQSLINDNQEVPRKLFLLSPLLDATLTNPNITKTLEENDILVSRFGVHQLMKSWTNDLPLSDARISPLYGTLKGLPPIYMYGGGREILSPDMHAFTHALEECGNDVEFKEYPKMVHDFPIYPIRQSHKVLKHITKSI”, the “soluble on expression in E. coli” value is reported as “not soluble”.
